# Assay results reported in patent publication US20090186036A1.
# Key:
# [1] = target: soluble recombinant human αvβ6 (human) (UniProt P06756); assay: ELISA on plate-bound soluble αvβ6 in Ca/Mg [panel B]
# [2] = target: soluble recombinant human αvβ6 (human) (UniProt P06756); assay: ELISA on plate-bound soluble αvβ6 in EDTA (10 mM) [panel B]
# [3] = target: αvβ6 of human tumor cells and tissues (Detroit 562 cells, SCC-14 cells, carcinoma sections) (human) (UniProt P06756); assay: adhesion of Detroit562 cells to LAP, % binding; blocked ligand LAP [Detroit562 panel]
# [4] = target: soluble recombinant human αvβ6 (human) (UniProt P06756); assay: ELISA, coated hsαvβ6
# [5] = target: soluble recombinant human αvβ6 (human) (UniProt P06756); assay: biotin-hsαvβ6 to coated LAP, blocking
# [6] = target: soluble recombinant human αvβ6 (human) (UniProt P06756); assay: ELISA on plate-bound soluble αvβ6 in Mn (1 mM MnCl2) [panel B]
# [7] = target: αvβ6 on β6-transfected SW480 cells (UniProt P06756); assay: cell-based or functional assay
# [8] = target: soluble recombinant human αvβ6 (human) (UniProt P06756); assay: KinExA, solution affinity for soluble αvβ6
# [9] = target: αvβ6 on β6-transfected FDC-P1 cells (murine) (UniProt P43406); assay: β6-FDC-P1 cells to coated LAP, blocking
# Sequence of αvβ6 on β6-transfected FDC-P1 cells (murine) (P43406 31-1044, chain 1 of 2): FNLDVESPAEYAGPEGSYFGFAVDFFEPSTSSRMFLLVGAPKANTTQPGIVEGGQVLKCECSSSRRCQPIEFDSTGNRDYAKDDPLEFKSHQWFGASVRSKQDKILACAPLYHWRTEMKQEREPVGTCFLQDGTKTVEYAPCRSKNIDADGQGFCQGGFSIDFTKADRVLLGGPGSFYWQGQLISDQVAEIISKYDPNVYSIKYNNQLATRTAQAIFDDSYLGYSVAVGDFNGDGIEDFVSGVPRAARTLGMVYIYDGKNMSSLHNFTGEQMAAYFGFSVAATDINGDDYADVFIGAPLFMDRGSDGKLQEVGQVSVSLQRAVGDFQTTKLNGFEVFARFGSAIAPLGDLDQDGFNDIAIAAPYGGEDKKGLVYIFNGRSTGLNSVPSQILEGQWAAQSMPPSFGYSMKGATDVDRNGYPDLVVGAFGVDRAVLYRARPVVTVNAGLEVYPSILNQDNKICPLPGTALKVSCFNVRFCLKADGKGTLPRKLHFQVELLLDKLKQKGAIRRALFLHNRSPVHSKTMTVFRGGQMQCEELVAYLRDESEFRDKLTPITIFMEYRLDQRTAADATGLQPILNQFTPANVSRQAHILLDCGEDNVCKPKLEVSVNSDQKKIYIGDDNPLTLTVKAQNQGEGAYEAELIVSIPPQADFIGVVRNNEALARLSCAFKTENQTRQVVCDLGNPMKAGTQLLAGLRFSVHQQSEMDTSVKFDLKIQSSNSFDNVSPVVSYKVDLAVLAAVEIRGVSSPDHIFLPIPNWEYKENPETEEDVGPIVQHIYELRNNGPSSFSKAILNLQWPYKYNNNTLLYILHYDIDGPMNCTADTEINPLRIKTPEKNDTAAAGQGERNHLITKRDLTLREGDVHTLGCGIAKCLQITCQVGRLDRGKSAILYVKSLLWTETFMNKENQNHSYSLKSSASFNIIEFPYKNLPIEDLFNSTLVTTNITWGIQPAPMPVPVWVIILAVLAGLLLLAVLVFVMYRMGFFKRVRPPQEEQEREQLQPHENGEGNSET
# Sequence of αvβ6 on β6-transfected FDC-P1 cells (murine) (Q9Z0T9 22-787, chain 2 of 2, further chain): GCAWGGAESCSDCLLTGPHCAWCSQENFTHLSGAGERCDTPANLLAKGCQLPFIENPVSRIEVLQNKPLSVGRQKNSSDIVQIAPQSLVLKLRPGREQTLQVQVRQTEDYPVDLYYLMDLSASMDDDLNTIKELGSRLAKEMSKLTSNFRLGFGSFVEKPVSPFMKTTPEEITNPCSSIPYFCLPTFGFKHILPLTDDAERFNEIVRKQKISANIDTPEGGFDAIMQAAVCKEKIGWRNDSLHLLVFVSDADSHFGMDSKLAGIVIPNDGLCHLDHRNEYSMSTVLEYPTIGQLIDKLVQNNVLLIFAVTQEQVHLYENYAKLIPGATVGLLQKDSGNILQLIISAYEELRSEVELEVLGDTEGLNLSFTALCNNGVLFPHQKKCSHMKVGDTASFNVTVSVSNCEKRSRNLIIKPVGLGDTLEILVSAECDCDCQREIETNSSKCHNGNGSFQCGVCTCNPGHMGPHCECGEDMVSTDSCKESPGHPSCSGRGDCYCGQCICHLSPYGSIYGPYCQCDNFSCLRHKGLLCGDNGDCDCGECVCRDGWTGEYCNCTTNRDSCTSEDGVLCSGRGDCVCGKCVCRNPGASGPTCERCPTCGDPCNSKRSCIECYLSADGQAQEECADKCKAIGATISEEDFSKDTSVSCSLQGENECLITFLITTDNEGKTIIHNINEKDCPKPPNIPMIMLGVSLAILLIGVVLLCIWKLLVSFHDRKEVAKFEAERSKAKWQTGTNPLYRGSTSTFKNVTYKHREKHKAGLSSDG
# [10] = target: αvβ6 on β6-transfected SW480 cells (UniProt P06756); assay: adhesion of SW480β6 cells to LAP, % binding; blocked ligand LAP [SW480β6 panel]
# [11] = target: soluble recombinant human αvβ6 (human) (UniProt P06756); assay: ELISA on plate-bound soluble αvβ6 in Ca/Mg [panel C]
# [12] = target: soluble recombinant human αvβ6 (human) (UniProt P06756); assay: ELISA on plate-bound soluble αvβ6 in Mn (1 mM MnCl2) [panel C]
# [13] = target: αvβ6 on β6-transfected FDC-P1 cells (murine) (UniProt P43406); assay: adhesion of labelled β6-transfected FDC-P1 cells to plate-bound LAP, % binding; blocked ligand LAP
# [14] = target: αvβ6 on β6-transfected FDC-P1 cells (murine) (UniProt P43406); assay: as above; remark: listed apart in the source
# [15] = target: αvβ6 on β6-transfected FDC-P1 cells (murine) (UniProt P43406); assay: as above; remark: listed apart in the source
# [16] = target: soluble recombinant human αvβ6 (human) (UniProt P06756); assay: KinExA, solution affinity for soluble αvβ6, with CaCl2 and MgCl2
# [17] = target: soluble recombinant human αvβ6 (human) (UniProt P06756); assay: ELISA on plate-bound soluble αvβ6 in Mn (1 mM MnCl2) [panel F]
# [18] = target: soluble recombinant human αvβ6 (human) (UniProt P06756); assay: ELISA on plate-bound soluble αvβ6 in EDTA (10 mM) [panel F]
# [19] = target: soluble recombinant human αvβ6 (human) (UniProt P06756); assay: ELISA on plate-bound soluble αvβ6 in Ca/Mg [panel F]
# Sequence of soluble recombinant human αvβ6 (human) (P06756 31-992, chain 1 of 2): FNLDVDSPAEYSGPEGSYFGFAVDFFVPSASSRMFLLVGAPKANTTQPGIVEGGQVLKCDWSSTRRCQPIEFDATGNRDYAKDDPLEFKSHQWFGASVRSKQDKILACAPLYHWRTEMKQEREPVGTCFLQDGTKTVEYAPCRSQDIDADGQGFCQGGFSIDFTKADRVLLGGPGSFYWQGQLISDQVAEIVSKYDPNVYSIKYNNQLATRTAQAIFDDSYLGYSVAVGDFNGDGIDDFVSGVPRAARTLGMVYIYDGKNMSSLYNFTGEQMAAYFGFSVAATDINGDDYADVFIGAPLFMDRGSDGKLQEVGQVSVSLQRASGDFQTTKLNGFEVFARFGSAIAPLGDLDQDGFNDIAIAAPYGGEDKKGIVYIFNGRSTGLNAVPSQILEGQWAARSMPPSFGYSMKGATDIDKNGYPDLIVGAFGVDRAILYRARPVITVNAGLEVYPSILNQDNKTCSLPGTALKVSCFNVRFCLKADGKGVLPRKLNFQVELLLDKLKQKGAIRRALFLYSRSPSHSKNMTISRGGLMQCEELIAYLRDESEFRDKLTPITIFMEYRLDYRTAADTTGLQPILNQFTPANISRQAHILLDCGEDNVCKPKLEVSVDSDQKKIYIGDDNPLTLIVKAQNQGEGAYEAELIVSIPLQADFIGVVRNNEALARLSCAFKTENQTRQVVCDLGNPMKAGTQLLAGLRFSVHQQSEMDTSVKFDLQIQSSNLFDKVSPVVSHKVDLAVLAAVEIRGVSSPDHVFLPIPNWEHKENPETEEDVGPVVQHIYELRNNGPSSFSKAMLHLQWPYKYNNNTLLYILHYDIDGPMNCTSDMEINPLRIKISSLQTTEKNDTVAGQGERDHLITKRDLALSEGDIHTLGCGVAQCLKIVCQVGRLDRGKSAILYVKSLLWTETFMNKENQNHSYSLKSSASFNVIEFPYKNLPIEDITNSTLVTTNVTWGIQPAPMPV
# Sequence of soluble recombinant human αvβ6 (human) (P18564 22-709, chain 2 of 2, further chain): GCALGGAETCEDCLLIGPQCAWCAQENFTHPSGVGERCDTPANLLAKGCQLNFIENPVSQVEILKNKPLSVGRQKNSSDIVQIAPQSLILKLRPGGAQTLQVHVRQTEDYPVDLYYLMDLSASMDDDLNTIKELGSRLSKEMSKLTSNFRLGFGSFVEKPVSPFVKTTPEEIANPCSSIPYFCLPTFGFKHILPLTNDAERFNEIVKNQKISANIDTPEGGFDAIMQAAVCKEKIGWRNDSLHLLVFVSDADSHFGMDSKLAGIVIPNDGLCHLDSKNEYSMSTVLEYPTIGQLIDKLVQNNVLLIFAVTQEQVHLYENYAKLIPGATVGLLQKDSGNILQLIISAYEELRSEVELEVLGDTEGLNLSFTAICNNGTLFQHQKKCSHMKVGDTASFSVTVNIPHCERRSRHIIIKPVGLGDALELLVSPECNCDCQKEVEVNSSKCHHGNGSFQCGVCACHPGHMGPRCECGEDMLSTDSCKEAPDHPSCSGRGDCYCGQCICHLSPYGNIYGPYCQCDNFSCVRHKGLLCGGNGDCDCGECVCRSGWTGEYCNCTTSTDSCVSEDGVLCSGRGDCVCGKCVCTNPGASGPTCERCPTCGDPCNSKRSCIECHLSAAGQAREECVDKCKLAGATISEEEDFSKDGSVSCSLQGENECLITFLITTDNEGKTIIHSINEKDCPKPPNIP
substance,measurement,setting,value
6.3G9 (antibody),EC50 (read off the curve),[1],0.09 µg/mL
same,EC50 (read off the curve),[2],0.09 µg/mL
same,IC50 (read off the curve),[3],0.04 µg/mL
same,EC50,[4],0.0767 µg/mL
same,IC50,[5],0.271 µg/mL
same,EC50 (read off the curve),[6],0.09 µg/mL
same,PAI-1 luciferase IC50,[7],0.375 µg/mL
same,Kd,[8],0.0156 nM
same,IC50,[9],0.017 µg/mL
same,IC50 (read off the curve),[10],0.03 µg/mL
6.8G6 (antibody),EC50 (read off the curve),[11],0.02 µg/mL
same,EC50 (read off the curve),[12],0.03 µg/mL
same,EC50,[4],0.0175 µg/mL
same,IC50,[5],0.169 µg/mL
same,IC50,[13],0.101 µg/mL
same,IC50,[14],0.061 µg/mL
same,PAI-1 luciferase IC50,[7],0.312 µg/mL
same,IC50,[15],0.083 µg/mL
same,IC50,[9],0.023 µg/mL
same,Kd,[16],0.0228 nM
L230 (antibody),EC50 (read off the curve),[17],0.01 µg/mL
same,EC50 (read off the curve),[18],0.01 µg/mL
same,EC50,[4],0.0271 µg/mL
same,IC50,[5],0.229 µg/mL
same,EC50 (read off the curve),[19],0.01 µg/mL
